To fix the notation:
B1: human glycophorin A in the red blood cell membrane (other, UniProt P02724 20-150, looked up)
chain: LSTTEVAMHTSTSSSVTKSYISSQTNDTHKRDTYAATPRAHEVSEISVRTVYPPEEETGERVQLAHHFSEPEITLIIFGVMAGVIGTILLISYGIRRLIKKSPSDVKPLPSPDTDVPLSSVEIENPETSDQ
notes: whole, on cells; used for intact RBC, isolated RBC membranes and transfected cells; the assay field tells which; also called GPA; hGPA

The target in one assay is T1, B-domain deleted FVIII (human, UniProt P00451 20-2351).
T1 construct: control without scFv; also called BDD; BDD-FVIII
T1 sequence (looked up): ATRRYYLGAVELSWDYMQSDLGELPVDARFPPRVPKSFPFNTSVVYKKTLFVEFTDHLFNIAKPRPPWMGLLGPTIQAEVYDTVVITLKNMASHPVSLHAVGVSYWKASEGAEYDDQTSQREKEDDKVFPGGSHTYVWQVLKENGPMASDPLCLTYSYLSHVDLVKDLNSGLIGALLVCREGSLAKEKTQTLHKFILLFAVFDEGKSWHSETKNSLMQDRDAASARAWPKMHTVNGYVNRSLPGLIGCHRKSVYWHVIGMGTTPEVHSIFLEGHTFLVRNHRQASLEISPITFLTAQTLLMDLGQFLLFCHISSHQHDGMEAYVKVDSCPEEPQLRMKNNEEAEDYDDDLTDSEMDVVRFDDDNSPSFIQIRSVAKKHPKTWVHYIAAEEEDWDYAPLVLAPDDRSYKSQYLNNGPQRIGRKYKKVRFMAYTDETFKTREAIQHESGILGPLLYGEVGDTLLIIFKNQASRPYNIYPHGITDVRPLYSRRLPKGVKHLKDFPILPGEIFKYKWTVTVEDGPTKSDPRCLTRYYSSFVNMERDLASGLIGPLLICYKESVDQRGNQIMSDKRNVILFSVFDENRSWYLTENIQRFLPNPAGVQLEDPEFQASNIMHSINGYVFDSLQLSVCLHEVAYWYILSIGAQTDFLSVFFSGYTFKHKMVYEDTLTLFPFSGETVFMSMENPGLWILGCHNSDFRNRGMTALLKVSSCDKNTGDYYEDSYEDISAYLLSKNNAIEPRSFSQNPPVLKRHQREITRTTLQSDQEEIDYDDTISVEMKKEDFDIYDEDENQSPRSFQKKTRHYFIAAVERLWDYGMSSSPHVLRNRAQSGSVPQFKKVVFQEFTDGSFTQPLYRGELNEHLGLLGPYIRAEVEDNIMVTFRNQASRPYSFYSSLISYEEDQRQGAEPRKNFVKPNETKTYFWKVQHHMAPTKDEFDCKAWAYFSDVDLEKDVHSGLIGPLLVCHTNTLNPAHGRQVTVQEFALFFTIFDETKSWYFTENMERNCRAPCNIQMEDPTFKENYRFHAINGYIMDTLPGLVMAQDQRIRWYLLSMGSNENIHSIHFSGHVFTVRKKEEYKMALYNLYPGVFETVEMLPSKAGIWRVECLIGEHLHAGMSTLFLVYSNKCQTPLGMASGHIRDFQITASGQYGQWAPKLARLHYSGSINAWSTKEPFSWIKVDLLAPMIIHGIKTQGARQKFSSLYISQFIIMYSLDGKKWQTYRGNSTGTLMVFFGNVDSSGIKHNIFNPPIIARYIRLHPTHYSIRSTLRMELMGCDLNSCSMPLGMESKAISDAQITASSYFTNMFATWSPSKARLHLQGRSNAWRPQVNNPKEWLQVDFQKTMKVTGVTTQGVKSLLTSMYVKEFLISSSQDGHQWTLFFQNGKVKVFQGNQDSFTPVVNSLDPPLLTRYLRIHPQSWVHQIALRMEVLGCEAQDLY
Nature of the assay: RBC partition assay, FVIII activity left in plasma.

Assay [1] deals with B1. Nature of the assay: SPR, human RBC membranes, Fab. Background: In SPR one partner is held on a chip, and binding of the other changes the refractive index at the surface.
Description: Kinetic analysis of the antibody binding to human red blood cell membranes was also performed using surface plasmon resonance (SPR) using a Biacore instrument. In this assay membranes prepared from human red blood cells were attached to a L1 sensor matrix and antibodies were flowed over the RBC membranes.
The next assay addresses T2, GP13 peptide (human).
T2 peptide: Biotin-PPEEETGE
Description: peptide ELISA, Fab.

A further assay addresses T3, GP11 peptide (human).
T3 peptide: Biotin-VYPPEEET
Description: peptide ELISA, Fab.

Another assay has as its target T4, GP14 peptide (human).
T4 peptide: Biotin-PEEETGER
Description: peptide ELISA, Fab. A general note: An ELISA detects its analyte on a solid surface through an enzyme-linked reagent.

Another assay has as its target T5, GP7 peptide (human).
T5 peptide: Biotin-SVRTVYPP
Description: peptide ELISA, Fab.

In the next assay the target is T6, GP9 peptide (human).
T6 peptide: Biotin-RTVYPPEE
Description: peptide ELISA, Fab.

The target in a further assay is T7, GP10 peptide (human).
T7 peptide: Biotin-TVYPPEEE
Nature of the assay: peptide ELISA, Fab.

The target in a further assay is T8, GP16 peptide (human).
T8 peptide: Biotin-EETGERVQ
Description: peptide ELISA, Fab.

Another assay deals with T9, GP15 peptide (human).
T9 peptide: Biotin-EEETGERV
Description: peptide ELISA, Fab.

Another assay has as its target T10, GP12 peptide (human).
T10 peptide: Biotin-YPPEEETG
Nature of the assay: peptide ELISA, Fab.

The target in another assay is T11, GP8 peptide (human).
T11 peptide: Biotin-VRTVYPPE
Nature of the assay: peptide ELISA, Fab.

In assay [2] the target is T12, GP5-14 alanine scanning peptide (human, N-terminal biotin).
T12 construct: GP5 with alanine at position 14
T12 peptide: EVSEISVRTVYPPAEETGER
Nature of the assay: alanine scanning peptide ELISA.

Assay [3] deals with T13, GP5-16 alanine scanning peptide (human, N-terminal biotin).
T13 construct: GP5 with alanine at position 16
T13 peptide: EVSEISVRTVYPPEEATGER
Nature of the assay: alanine scanning peptide ELISA.

The target in assay [4] is T14, GP5-13 alanine scanning peptide (human, N-terminal biotin).
T14 construct: GP5 with alanine at position 13
T14 peptide: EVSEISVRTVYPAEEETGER
Nature of the assay: alanine scanning peptide ELISA.

Assay [5] deals with T15, GP5-11 alanine scanning peptide (human, N-terminal biotin).
T15 construct: GP5 with alanine at position 11
T15 peptide: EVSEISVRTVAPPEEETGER
Nature of the assay: alanine scanning peptide ELISA.

In assay [6] the target is T16, Cynomolgus monkey glycophorin A on Cynomolgus monkey red blood cells (Cynomolgus monkey).
T16 construct: whole, on cells; also called Cyno RBC; Cyno GPA
Description: FACS, Cyno #2 RBC.

Assay [7] concerns the target T16, Cynomolgus monkey glycophorin A on …. Nature of the assay: FACS, Cyno #3 RBC. In general terms: In flow cytometry, cells or beads pass a laser one at a time.
The target of another assay is T17, dog red blood cells (dog).
T17 construct: also called dog RBC
Description: FACS, Dog RBC.

For assay [8], the target named is T16, Cynomolgus monkey glycophorin A on …. Nature of the assay: FACS, Cyno #1 RBC.
For assay [9], the target named is B1. Nature of the assay: FACS, scFv-Fc.
The target in assay [10] is B1. Nature of the assay: FACS, Human RBC.
The target in assay [11] is T18, Rhesus monkey glycophorin A on Rhesus monkey red blood cells (Rhesus monkey, UniProt A0A1D5Q349 20-150).
T18 construct: whole, on cells; also called Rhesus RBC; monkey GPA
T18 sequence: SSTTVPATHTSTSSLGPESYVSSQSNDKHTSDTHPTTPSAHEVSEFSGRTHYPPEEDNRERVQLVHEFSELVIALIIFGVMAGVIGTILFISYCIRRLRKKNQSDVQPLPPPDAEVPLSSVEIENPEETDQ
Nature of the assay: FACS, Rhesus RBC.

Consider three molecules from patent publication US20190359687A1 (Bayer, published 2019).

No end group written: not given here. *: point of attachment. Biotin = O=C1N[C@H]2[C@H](CS[C@H]2CCCCC(=O)*)N1

Description for GP10 peptide: (§1) These peptides were attached to the surface of a streptavidin coated plate via a biotin moiety that was present at the N-terminus of each peptide.
Description for GP11 peptide: as §1
Description for GP12 peptide: as §1
Description for GP13 peptide: as §1
Description for GP14 peptide: as §1
Description for GP15 peptide: as §1
Description for GP16 peptide: as §1
Description for GP7 peptide: as §1
Description for GP8 peptide: as §1
Description for GP9 peptide: as §1

For the molecule B1, the binding result in the assay with B-domain deleted FVIII is “no binding (tested: 1 IU/mL)”.

B2: TPP-5906 Fab (Fab, V domains shown)
VH: EVQLVQSGAEVKKPGASVKVSCKASGYTFTTYTIHWVRQAPGQGLEWMGYINPSSGYTRYNPKFKGRVTMTRDKSTSTAYMELRSLRSDDTAVYYCQTGTRDYWGQGTTVTVSS
VL: DIQLTQSPSFLSASVGDRVTITCRASSSVSYIYWFQQKPGKAPKLLIYATSTLQSGVPSRFSGSGSGTEYTLTISSLQPEDFATYYCHQRNSFPYTFGQGTKLEIKR
notes: also called parental humanized and germlined 6C12 Fab
As for B2, the “fold improvement of affinity against the parental antibody” value in assay [1] was about 200 fold. Further, the binding result with GP13 peptide, in the assay with GP11 peptide, with GP14 peptide, in the assay with GP7 peptide, in the assay with GP9 peptide and with GP10 peptide was “no binding (tested: 0.5 ug/ml)” throughout. For the same molecule, the binding result in the assay with GP16 peptide, in the assay with GP15 peptide, with GP12 peptide and with GP8 peptide was “no binding (tested: 0.5 ug/ml)” throughout. The “percent reduction of binding” value is over 95% in assay [2], 50% in assay [3], 70% in assay [4] and over 95% in [5].

B3: 1H5 scFv-Fc (Fc fusion)
scFv: QVQLQQSGAELARPGASVKMSCKASGYTFTSYSIHWIKQRPGQSLEWIGYINPNSDYANYNQKFKDKATLTTDKSSTTAYMQLSSLTTDDSAVYYCQTGTRDYWGQGTTLTVSSGGGGSGGGGSGGGGSDIVMTQSPSSLSVSAGEKVTMSCKSSQSLLNSGNQKNYLAWYQQKPGQPPKLLIYGASTRESGVPDRFTGSGSGTDFTLTISSVQAEDLAVYYCQNDHSYPYTFGGGTKLEIKGGGGAGGGGCKPCICTVPEVSSVFIFPPKPKDVLTITLTPKVTCVVVDISKDDPEVQFSWFVDDVEVHTAQTQPREEQFNSTFRSVSELPIMHQDWLNGKEFKCRVNSAAFPAPIEKTISKTKGRPKAPQVYTIPPPKEQMAKDKVSLTCMITDFFPEDITVEWQWNGQPAENYKNTQPIMDTDGSYFVYSKLNVQKSNWEAGNTFTCSVLHEGLHNHHTEKSLSHSPGK
notes: as m18
Take B3: the FACS signal (in assay [6]; in assay [7]; with dog red blood cells; in assay [8]; in assay [10]; in [11]) was 1 Flourescent units each time. Besides, the binding result in assay [9] was “no binding”.
